In data set [1] the test system is HEK293-F. Nature of the data set: Luciferase time course after forskolin induction, transient transfection of suspension HEK293-F. In kind it is cell-based, human. The conditions noted are these: 20 µM forskolin. On the procedure: The tested promoters were synthesised directly upstream of the ATG of PM-RQ plasmid and the suspension cell lines were transiently transfected with the PM-RQ plasmid.
40 ml of cells were grown in a 250 ml vented Erlenmeyer flask (Sigma-Aldrich CLS431144) at 37° C., 20% O2, 8% CO2 with agitation at 100 rpm. Cells were seeded as described in the manufacturer's instructions (300,000 cells/ml). HEK293-F were obtained from Thermofisher, R79007.
One day before transfection, the cells were counted using a haemocytometer and split to 500,000 cells/ml.
On the day of transfection, the cells are seeded to 1,000,000 cells/ml in 500 μl of appropriate medium (Freestyle 293 expression medium, 12338002) in a 24 well plate. […] of DNA per well was then added to 10 μl of OptiMem medium (Thermofisher; 11058021) and incubated for 5 minutes at room temperature.
Concurrently, 0.625 μl of Max reagent (Thermofisher, 16447100) was made up to 10 μl by addition of OptiMem and incubated for 5 minutes at room temperature. After this incubation, both mixes were added to the same tube and incubated at room temperature for 25-30 minutes. […]
24 hours after transfection, the promoters were induced by addition of […] forskolin and luciferase activity was measured 0, 3, 5 and 24 hours after induction. Luciferase activity was measured as previously described.

In data set [2] the test system is CHO-GS-KSV1 cell line. The data set can be described thus: SEAP expression in stably transfected CHO-GS-KSV1, forskolin or NKH477 induction. The class given is cell-based, chinese hamster. As to conditions: stable CHO-GS-KSV1, SEAP, forskolin or NKH477. On the procedure: The forskolin-inducible promoters were then tested in a stably transfected CHO-GS-KSV1 cell line.
• CD-CHO media (Life technologies, CAT #10743029) • Corning 125 mL Polycarbonate Erlenmeyer Flask with Vent Cap (CAT #734-1885). • Gene Pulser® Electroporation Cuvettes, 0.4 cm gap (BioRad, CAT #165-2088) • Gene Pulser Xcell Total System (BioRad, CAT, #1652660) • GS-vector DNA ([…] in 100 μL TE buffer) linearised with Sca1 • Suspension cultures of CHOK1SV GS-KO host cells.
Cell suspensions of 6×10^5 cells per mL were incubated on an orbital shaker set at 8% CO2, 20% O2, 37° C., 85% relative humidity and 140 rpm overnight. 2.86×10^7 cells were centrifuged at 200 g for 3 minutes. Media was then aspirated and cell pellet resuspended in 2 mL fresh CD-CHO media to obtain a concentration of 1.43×10^7 cells per mL. 700 μL of cell suspension was added to each of two electroporation cuvettes each containing […] of linearised DNA in 100 μL of sterile TE buffer (Thermofisher, 12090015). Each cuvette was electroporated, delivering a single pulse of 300V, […] with resistance to infinity. Immediately after delivery of pulse electroplated cells were transferred to Erlenmeyer 125 mL flask containing 20 mL of CD-CHO media pre-warmed to 37° C. Electroporated cells from two cuvettes are combined into a single 125 mL flask to generate one pool of cells. Cells are cultured on an orbital shaker set at 8% CO2, 20% O2, 37° C., 85% relative humidity and 140 rpm. Cells are transferred to fresh CD-CHO media 24 hours after transfection and cell cultures monitored and given fresh CD-CHO media every 2-4 days. Usually after about 10-14 days cell numbers will be high enough to start passaging.
The transfected DNA was the pXC-17.4 expression vector (Lonza Biologics plc) where one of the promoter constructs (or a control promoter (CMV-IE) have been cloned upstream of the secreted alkaline phosphatase (SEAP) gene, which had been cloned into the multiple cloning site within the vector expression cassette. Promoters were closed into the pXC-17.4 vector using Gibson assembly. The pXC-17.4 expression vector is designed for making stable cell lines in the CHO-GSK1SV cell line as it contains the […] gene which has been knocked out of the cell line. Therefore, selection of cells in glutamine drop-out medium will select for cells that have stably integrated the plasmid.
The responsiveness of the RTV-019 promoter to different concentrations of forskolin and […] was tested in the stably transfected CHO-GS-KSV1 cell line. To this end, the stably transfected CHO-GS cells were seeded at 500,000 cells/ml and allowed to grow for 24 hrs. At this point the cells were induced by addition of the respective concentrations of forskolin and NKH477 and SEAP expression was measured as described below after 24 hours.
The promoter activity and inducibility of FMP-02, FORCYB-001, RTV-017, FORCSV-10, FOR-CMC-009, FLP-01 and RTV-019 were also tested in the stably transfected CHO-GS-KSV1 cell line. To this end, the stably transfected CHO-GS cells were seeded at 500,000 cells/ml and allowed to grow for 24 hrs. At this point the cells were exposed to […] forskolin or […] NKH477 for 24 hours. After this point, the SEAP activity in the medium was assessed as described below.
SEAP Reporter Gene Assay, chemiluminescent (Roche, CAT #11 779 842 001) was used to measure SEAP activity as per the manufacturer's protocol. All reagents and samples were fully pre-equilibrated at room temperature. Culture supernatant was collected from the stably transfected CHO-GS at the specific time points (0 h and 24 h). The supernatant was diluted 1:4 in dilution buffer and heat treated at 65° C. for 30 minutes. The heat-treated sample was then centrifuged for 30 s at maximum speed. 50 μl of the heat-treated sample was then added to 5 μl of inactivation buffer and incubated for 5 min at room temperature. 50 μl of substrate reagent was then added and incubated for 10 min at room temperature. […]

B1: FMP-02: synthetic forskolin-inducible promoter, SEQ ID NO: 41; 8× AP1(1) TFBS and MinTK minimal promoter (nucleic acid)
DNA: TGAGTCAGATGATGCGTAGCTAGTAGTTGAGTCAGATGATGCGTAGCTAGTAGTTGAGTCAGATGATGCGTAGCTAGTAGTTGAGTCAGATGATGCGTAGCTAGTAGTTGAGTCAGATGATGCGTAGCTAGTAGTTGAGTCAGATGATGCGTAGCTAGTAGTTGAGTCAGATGATGCGTAGCTAGTAGTTGAGTCAGTAGTCGTATGCTGATGCGCAGTTAGCGTAGCTGAGGTACCGTCGACGATATCGGATCCTTCGCATATTAAGGTGACGCGTGTGGCCTCGAACACCGAGCGACCCTGCAGCGACCCGCTTAA
modifications: Synp-FMP-02
notes: 8× AP1(1) TFBS and MinTK minimal promoter
With B1, the “relative rank of promoter (fold induction/strength)” value in data set [1] was “weakest”. In addition, the “relative rank of promoter strength” value in data set [2] is on record as “weakest”.

The values are drawn from US20230167458A1, “FORSKOLIN-INDUCIBLE PROMOTERS AND HYPOXIA-INDUCIBLE PROMOTERS” (ASKLEPIOS BIOPHARMACEUTICAL, INC., priority 2020, published 2023).
